Patent US7005283B2, “Cytochrome P450 oxygenases and their uses” (Washington State University Research Foundation, priority 1999, dated 2006)

Columns and labels:
[1] = format: binding, Saccharomyces cerevisiae
Text: CO-sensor of the 19 full-length cytochrome P450 clones from Taxus, thus far obtained, ten have yielded detectable CO-difference spectra (Table 2). […] These alternative expression systems for cytochrome P450 genes include the yeast Pichia pastoris, for which expression vectors and hosts are commercially available (Invitrogen, Carlsbad, Calif.), as well as established E. coli and baculovirus-insect cell systems for which general expression procedures have been described (Barnes, Methods Enzymol. 272:1–14, 1996;Gonzalez et al., Methods Enzymol. 206:93–99, 1991;Lee et al., Methods Enzymol. 272:86–98, 1996;and Lupien et al., Arch. Biochem. Biophys. 368:181–192, 1999).
Appropriate restriction sites were introduced by standard PCR methods (Innis et al., PCR Protocols: A Guide to Methods and Applications, Academic Press, San Diego, Calif., 1990) immediately upstream of the ATG start codon and downstream of the stop codon of all full-length cytochrome P450 clones. These modified amplicons were gel-purified, digested with the corresponding restriction enzymes, and then ligated into the expression vector pYeDP60. The vector/insert junctions were sequenced to ensure that no errors had been introduced by the PCR construction. Verified clones were transformed into yeast using the lithium acetate method (Ito et al., J. Bacteriol. 153:163–168, 1983). Isolated transformants were grown to stationary phase in SGI medium (Pompon et al., Methods Enzymol. 272:51–64, 1996), and used as inocula for a large-scale expression culture grown in YPL medium (Pompon et al., Methods Enzymol. 272:51–64, 1996). Approximately 24 hours after induction of cytochrome P450 expression with galactose (to 10% final concentration), a portion of the yeast cell culture was harvested by centrifugation. One-half of the culture was treated with carbon monoxide, and the cytochrome P450 CO-difference spectrum was recorded directly (using untreated cells as a control) by spectrophotometry (Omura and Sato, J. Biol. Chem. 239:2370–2378, 1964).

[2] = In vivo assay of yeast cells expressing recombinant oxygenases, radio-HPLC, substrate taxadien-5α-ol; format: cell-based, Saccharomyces cerevisiae; details: assayed with Taxadien5αol; graded symbols, key not given
Text: (§1) Transformed yeast cells that fimctionally express a recombinant cytochrome P450 gene from Taxus (by CO-difference spectrum) can be tested in vivo for their ability to oxygenate (hydroxylate or epoxidize) taxoid substrates fed exogenously to the cells, thereby eliminating the need for microsome isolation for preliminary in vitro assays.
(§2) Accordingly, several clones of the available full-length clones were expressed in induced yeast host cells.
(§3) Isolated transformants for each full-length cytochrome P450 clone shown to express a functional enzyme by CO-difference spectrum (ten clones) were grown to stationary phase in 2 mL SGI medium at 30° C. and used to inoculate a 10-mL expression culture (in YPL medium). Approximately 8 hours after induction, cells were harvested by centrifugation (10 minutes at 1500 rpm), and the pellet was resuspended in 2 mL of fresh YPL medium.
(§4) To eliminate additional complication and uncertainty associated with microsome isolations for in vitro assays, 10^6 dpm of [20-^3H3]taxa-4(5),11(12)-diene (16 Ci/mol) or [20-^3H2]taxa-4(20),11(12)-diene-5-α-ol (4.0 Ci/mol), or other taxoid substrate were added directly to the cell suspension to assay conversion in vivo. After 12 hours of incubation at 30° C. with agitation (250 rpm), the mixture was treated for 15 minutes in a sonication bath and extracted 3 times with 2 mL diethyl ether to insure isolation of the biosynthetic products. These ether extracts, containing residual substrate and derived product(s), were concentrated to dryness, resuspended in 200 μL of CH3CN, and filtered. These samples were analyzed by radio-HPLC (Hefner et al., Chemistry and Biology 3:479–489, 1996) using a 4.6 mm i.d.×250 mm column of Econosil C18, 5 μ (Alltech, Deerfield, Ill.) with a gradient of CH3CN in H2O from 0% to 85% (10 minutes at 1 mL/minute), then to 100% CH3CN over 40 minutes.

[3] = In vivo assay of yeast cells expressing recombinant oxygenases, radio-HPLC, substrate taxadiene; format: cell-based, Saccharomyces cerevisiae; details: assayed with Taxadiene; graded symbols, key not given
Text: as §1, §2, §3, §4

[4] = In vivo screening of functionally expressed clones in yeast with taxoid substrates (general statements); format: cell-based, Saccharomyces cerevisiae; details: in vivo
Text: as §1, §2
(§5) Transformed yeast cells that functionally express a recombinant cytochrome P450 gene from Taxus (by CO-difference spectrum) were tested in vivo for their ability to oxygenate (hydroxylate or epoxidize) taxoid substrates fed exogenously, thereby eliminating the need for microsome isolation for such a preliminary in vitro assay. […] The ether extracts resulting from these incubations were analyzed by radio-HPLC. Several clones converted the taxadienyl-5α-yl acetate substrate to a more polar product.
as §3, with “medium. […]” for “medium.”

[5] = In vivo assay of yeast cells expressing recombinant oxygenases, radio-HPLC, substrate taxadienyl acetate; format: cell-based, Saccharomyces cerevisiae; details: assayed with Taxadienyl Ac; graded symbols, key not given
Experimental: as §5, §3, §4

| Molecule | CO diff. spec. [1] | product identified HPLC peak [2] | product identified HPLC peak [3] | CO-difference spectrum [1] | oxygenation of taxoid substrates [4] | product identified HPLC peak [5] |
| --- | --- | --- | --- | --- | --- | --- |
| clone F23: Taxus cuspidata cytochrome P450 oxygenase, full-length clone, SEQ ID NO: 84 (nt) / 90 (aa) (protein, listed as Taxus cuspidata) MELWNMFLPWISIATATSLTVGMASAFAIIYAPLLLSFLRLKTARRNMPPIPPGSMGMPFWGESLGYLGSWNNQSNPDVWYDTRKAKHGKIFTTHILGSPTVVMLGPDANRFILINENKLFLNSWPKSLNALIGKHALITSQGAEHKRMRRIIHSVLGPRNPETSVGRFEGLVLHHLDSDWHGGQIIQAYRQVKDMALCLAADFFMGLKPGKELETFRRHFSDFSAGLLSHPLDLPWTVFGKAKRARAAMVTQIFSQIRLHRTSMHKSGEEGGNFLDMVLGSQEKGGDLRLSEEEIADNLMGLLTGGQDTTASALATILKHLSLSPHLLQRLRKECEKLRDNKEAGGPLTWSEIKSVGYLHNVISEGLRMVAPINGGFKKAKVDVVYGGYTIPKGWKVHYSVRQTNNKEEYFPSPERFDPDRFNERHEPFSFIPFGQGNRMCPGNEFARLEMELFLYHLVLRYDWELMEADERTNMYFIPHPVHSLPLLLKHVPPT | − | No | No |  |  |  |
| clone F55: Taxus cuspidata cytochrome P450 oxygenase, full-length clone, SEQ ID NO: 52 (nt) / 65 (aa) (protein, listed as Taxus cuspidata, not fully specified; (1)..(507) “Xaa” equals any peptide) METKFGQLMQLEFLPFILTPILGALVLLHLFRHRNRSSVKLPPGKLGFPVIGETIQFLRALRSQTPQKFFDDRVQKFGGVFKTSLIGNPLVVMCGPAGNRLVLSNEDKLVQLEAPNSLMKLMGQDSLLAKRQEDHRTLRAALARFLGPQALXNYMTKISSRTEHHMNEKWKGKDEVRTLPLIRELIFSNASSLFFDINDEHQQERLHHLLEAVVVGSMSIPLDFPGTRLRKALQARSKLDEILSSLIKSRRKDLVSGIASDDQDLLSVLLTFKDERGNPLTDKEILDNFSLLLHASYDTTVSPMVLTLKLLSSNPECYEKVVQEQLGIVANKRIGEEISWKDLKAMKYTWQVVQETLRMFPPLFGSFRKAMVDIDYDGYTIPKGWMILWTTYGTHLREEYFNEPLKFRPSRFEEDGRVTPYTFIPFGGGARTCPGWEFSKTEILLFIHHFVRTFSSYLPVDSNEKISADPFPPLPANGFSIKLSADPFPPLPANGFSIKLFPRSQSN | − | No | No |  |  |  |
| clone F34: Taxus cuspidata cytochrome P450, outlying full-length clone, SEQ ID NO: 53 (nt) / 66 (aa) (protein, listed as Taxus cuspidata, X: residue not identified in the source; ends and bridges not checked) MAYPELLENLSGDRAQSPAIAAVLTILFLLGIFYILRGLRNNGRRLPPGPIPWPIVGNLHQLGKLPNRNLEELAKKHGPIMLMKLGSVPAVIVSSSAMAKEVLKTHDLVFASRPESAAGKYIAYNYKDIVFSPYGPYWRQMKKICVVELLNARRIESLRSVREEEVSVIIRSVWEKSKQGAVAVNLSKTLSSLTQGLMLQIFSSNDDGGNSSVTAIKEMMSEVSETAGAFNIGDYFPWMDWMDLQGIQRRMTKAHDYFDQVITKIIEQHQRTRAMEDTQQPKDIIDALLQMENTDGVTITMENIKAVVLGIFLGGAETTSTTLEWAMSAMLENPEVAKKVQEEIESVVGRKRVVKEMIWESMEYLQCVVKKTMRLYPAVPLLIPHESTQDCTVNGYFIPERTRILVNAWAIGKDPNVWDDALAFKPKRFLGXNVDLQKGKEFFDMVPFGAGRKGCPGASMAVVTMEHALAQLMHCFQWRIEGELDMSERLAASVQKKVDLCVLPQWRLTSSP | ++ | No | No | reliable CO-difference spectrum | does not transform the taxoid substrates to oxygenated products |  |
| clone F10: Taxus cuspidata cytochrome P450, outlying full-length clone, SEQ ID NO: 55 (nt) / 68 (aa) (protein, listed as Taxus cuspidata) MAFEAATVILFTLAALLLVVIQRRRIRRHKLQGKVKAPQPPSWPVIGNLHLLTQKVPIHRILSSLSESYGPIMHLQLGLRPALVIASSDLAKECFTTNDKAFASRPRLSAGKHVGYDYKIFSMAPYGSYWRNLRKMCTIQILSATRIDSFRHIRVEEVSALIRSLFDSCQREDTPVNMKARLSDLTFSIILRMVANKKLSGPVYSEEYEEADHFNQMIKQSVFLLGAFEVGDFLPFLKWLDLQGFIAAMKKLQQKRDVFMQKLVIDHREKRGRVDANAQDLIDVLISATDNHEIQSDSNDDVVKATALTMLNAGTDTSSVTIEWALAALMQHPHILSKAQQELDTHIGRSRLLEEADLHELKYLQAIVKETLRLYPAAPLLVPHEAIEDCTVGGYHVSAGTRLIVNAWAIHRDPAVWERPTVFDPERFLKSGKEVDVKGREFELIPFGSGRRMCPGMSLALSVVTYTLGRLLQSFEWSVPEGMIIDMTEGLGLTMPKAVPLETIIKPRLPFHLY | + | No | No |  |  |  |
| clone F31: Taxus cuspidata cytochrome P450 oxygenase, full-length clone, SEQ ID NO: 46 (nt) / 59 (aa) (protein, listed as Taxus cuspidata) MDALSLVNSTVAKFNEVTQLQASPAILSTALTAIAGIIVLLVITSKRRSSLKLPPGKLGLPFIGETLEFVKALRSDTLRQFVEEREGKFGRVFKTSLLGKPTVILCGPAGNRLVLSNEEKLLHVSWSAQIARILGLNSVAVKRGDDHRVLRVALAGFLGSAGLQLYIGKMSALIRNHINEKWKGKDEVNVLSLVRDLVMDNSAILFFNIYDKERKQQLHEILKIILASHFGIPLNIPGFLYRKALKGSLKRKKILSALLEKRKDELRSRLASSNQDLLSVLLSFRDERGKPLSDEAVLDNCFAMLDASYDTTTSQMTLILKMLSSNPECFEKVVQEQLEIASNKKEGEEITMKDIKAMKYTWQVLQESLRMLSPVFGTLRKTMNDINHDGYTIPKGWQVVWTTYSTHQKDIYFKQPDKFMPSRFEEEDGHLDAYTFVPFGGGRRTCPGWEYAKVEILLFLHHFVKAFSGYTPTDPHERICGYPVPLVPVKGFPIKLIARS | + | No | No |  |  | No |
| clone F21: Taxus cuspidata cytochrome P450 oxygenase, full-length clone, SEQ ID NO: 44 (nt) / 57 (aa) (protein, listed as Taxus cuspidata) MLIEMDTFVQLESSPVLLSLTLTLILLFIFCSKQYRSSLKLPPGNMGFPLIGETIALASQTPDKFFGDRMKKFGKVFKTSLIGHPTIVLCGSSGNRFLLSNEEKLVRMFPPNSSSKLLGQDSVLGKIGEEHRIVRTALARCLGPQALQNYVSKMSSEIQRHINQKWKGKGEVKMLPLIRSLVFSIATSLFFGITDEQQQERLHHLLETVVTGLLCIPLDFPGTTFRKALHARSKLDEIMSSVIERRRNDLRLGAASSDQDLLSVLLTFKDERGNPFADKEILDNFSFLLHALYDTTISPLTLVFKLVSSNPECYENIAQEQLEILRNKKDGEDISWADLKDMKYTWQAVQETLRMCPPVYGNFRKALTDIHYDGYTIPKGWRILCSPYTTHSKEEYFDDPEKFRPSRFEEQGRDVAPYTFIPFGGGLRICPGREFAKMEILVFMHHFVKAFSSFIPVDPNEKISTDPLPSIPVNGFSINLVPRS | + |  | No |  |  | No |
